The results in this text go back to patent WO2005085862A1 (dated 2005).

The test deals with T1, human Glucose-regulated protein 78 (Grp78) (human, UniProt P11021 19-654).
T1 construct: whole, on cells; also called Grp78/Bip; cell surface localized Grp78
The test is described as follows: western blot of whole cell extracts with purified scFv.

T1 sequence (P11021 19-654): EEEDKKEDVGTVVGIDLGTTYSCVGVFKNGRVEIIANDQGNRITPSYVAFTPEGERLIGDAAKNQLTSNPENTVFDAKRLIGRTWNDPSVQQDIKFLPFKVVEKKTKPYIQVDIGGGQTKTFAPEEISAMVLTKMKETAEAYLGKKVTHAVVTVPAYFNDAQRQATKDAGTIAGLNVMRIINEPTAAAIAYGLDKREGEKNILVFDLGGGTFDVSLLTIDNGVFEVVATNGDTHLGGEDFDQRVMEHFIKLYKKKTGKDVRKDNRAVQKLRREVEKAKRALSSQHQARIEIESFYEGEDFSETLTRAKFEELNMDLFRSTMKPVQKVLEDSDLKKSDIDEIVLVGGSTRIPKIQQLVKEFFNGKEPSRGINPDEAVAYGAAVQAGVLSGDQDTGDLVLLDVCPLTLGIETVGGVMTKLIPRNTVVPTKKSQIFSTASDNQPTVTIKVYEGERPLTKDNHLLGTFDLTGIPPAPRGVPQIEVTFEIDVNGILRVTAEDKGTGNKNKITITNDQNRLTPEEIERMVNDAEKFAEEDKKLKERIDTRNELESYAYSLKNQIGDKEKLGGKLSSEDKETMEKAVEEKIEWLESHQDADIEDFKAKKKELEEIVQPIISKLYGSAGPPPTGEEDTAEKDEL

B1: Grp78-scFv clone-19 (scFv)
scFv: EVQLVESGGGVVQPGRSLRLSCAASGFTFSSYGMHWVRQAPGKGLEWVAVISYDGSNKYYADSVKGRFTISRDNSKNTLYLQMNSLRAEDTAVYYCARKINSTKEVWGQGTLVTVSSGGGGSGGGGSGGSALQSVLTQPPSASGTPGQRVTISCSGSSSNIGSNYVYWYQQLPGTAPKLLIYRNNQRPSGVPDRFSGSKSGTSASLAISGLRSEDEADYYCAAWDDSLNPLVVFGGGTKLTVLGAAAHHHHHHGAAEQN
notes: Tested as soluble scFv made in E. coli HB2151 and purified on a Ni column, apparent size about 29 kDa; It was detected through its c-myc tag with mAb 9E10; also called anti-Grp78 scFv-19; scFv-19
Consider B1, for which the binding result was “binds”.
